Measurements taken from paper PMC3217464 (Molecular cell, 2009).

Molecular target: Flag-tagged full length MED1 (UniProt Q15648 1-1581)
Assay: immobilized-template protein recruitment assay

Sequence of Flag-tagged full length MED1 (Q15648 whole entry): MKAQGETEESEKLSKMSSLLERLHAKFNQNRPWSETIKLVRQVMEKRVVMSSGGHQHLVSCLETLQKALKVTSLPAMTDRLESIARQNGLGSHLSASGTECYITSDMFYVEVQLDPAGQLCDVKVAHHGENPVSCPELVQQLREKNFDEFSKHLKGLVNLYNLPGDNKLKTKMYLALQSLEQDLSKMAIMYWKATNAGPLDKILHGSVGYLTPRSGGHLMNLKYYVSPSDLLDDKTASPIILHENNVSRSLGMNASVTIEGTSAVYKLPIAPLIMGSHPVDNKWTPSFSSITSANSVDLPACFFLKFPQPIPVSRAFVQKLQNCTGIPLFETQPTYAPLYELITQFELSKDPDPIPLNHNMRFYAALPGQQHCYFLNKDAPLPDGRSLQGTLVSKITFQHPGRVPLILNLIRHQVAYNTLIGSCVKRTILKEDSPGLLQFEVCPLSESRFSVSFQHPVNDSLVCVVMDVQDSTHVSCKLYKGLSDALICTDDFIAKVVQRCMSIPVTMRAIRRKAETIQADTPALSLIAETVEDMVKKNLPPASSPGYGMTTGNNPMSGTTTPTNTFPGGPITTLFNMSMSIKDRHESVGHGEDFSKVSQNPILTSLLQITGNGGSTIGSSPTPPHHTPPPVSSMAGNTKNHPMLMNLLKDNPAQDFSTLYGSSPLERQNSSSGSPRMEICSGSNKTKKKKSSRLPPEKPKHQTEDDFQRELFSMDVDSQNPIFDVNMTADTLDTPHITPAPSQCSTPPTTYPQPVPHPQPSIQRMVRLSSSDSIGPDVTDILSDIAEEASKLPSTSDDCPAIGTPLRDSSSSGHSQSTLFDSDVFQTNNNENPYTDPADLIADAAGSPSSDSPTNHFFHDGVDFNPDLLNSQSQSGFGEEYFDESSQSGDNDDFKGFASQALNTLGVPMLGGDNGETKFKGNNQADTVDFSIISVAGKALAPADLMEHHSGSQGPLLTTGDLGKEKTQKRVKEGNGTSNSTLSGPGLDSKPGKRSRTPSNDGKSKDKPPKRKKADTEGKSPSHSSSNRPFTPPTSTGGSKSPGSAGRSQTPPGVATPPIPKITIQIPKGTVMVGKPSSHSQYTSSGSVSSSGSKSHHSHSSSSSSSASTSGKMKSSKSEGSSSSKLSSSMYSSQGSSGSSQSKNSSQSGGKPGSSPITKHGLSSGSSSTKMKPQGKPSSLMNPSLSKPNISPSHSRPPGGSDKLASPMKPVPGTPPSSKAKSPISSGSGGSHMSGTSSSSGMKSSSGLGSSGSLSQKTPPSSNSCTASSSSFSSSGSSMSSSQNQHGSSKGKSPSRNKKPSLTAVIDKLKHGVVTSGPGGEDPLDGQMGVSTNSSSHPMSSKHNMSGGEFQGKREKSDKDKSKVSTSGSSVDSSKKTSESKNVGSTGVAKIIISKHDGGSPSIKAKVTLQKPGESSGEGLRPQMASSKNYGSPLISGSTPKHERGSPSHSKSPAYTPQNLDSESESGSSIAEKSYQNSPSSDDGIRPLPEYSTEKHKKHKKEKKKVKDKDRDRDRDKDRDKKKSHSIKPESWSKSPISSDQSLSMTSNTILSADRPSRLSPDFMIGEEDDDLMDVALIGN

B1: His-tagged PGC-1α (334–797) (domain or fragment, UniProt O70343 334-797, looked up)
chain: ECSGTQGSHSTKKGPEQSELYAQLSKSSGLSRGHEERKTKRPSLRLFGDHDYCQSLNSKTDILINISQELQDSRQLDFKDASCDWQGHICSSTDSGQCYLRETLEASKQVSPCSTRKQLQDQEIRAELNKHFGHPCQAVFDDKSDKTSELRDGDFSNEQFSKLPVFINSGLAMDGLFDDSEDESDKLSYPWDGTQPYSLFDVSPSCSSFNSPCRDSVSPPKSLFSQRPQRMRSRSRSFSRHRSCSRSPYSRSRSRSPGSRSSSRSCYYYESSHYRHRTHRNSPLYVRSRSRSPYSRRPRYDSYEAYEHERLKRDEYRKEHEKRESERAKQRERQKQKAIEERRVIYVGKIRPDTTRTELRDRFEVFGEIEECTVNLRDDGDSYGFITYRYTCDAFAALENGYTLRRSNETDFELYFCGRKQFFKSNYADLDTNSDDFDPASTKSKYDSLDFDSLLKEAQRSLRR
B1: binds.

B2: His-tagged PGC-1α (501–797) (domain or fragment, UniProt O70343 501-797, looked up)
chain: NSGLAMDGLFDDSEDESDKLSYPWDGTQPYSLFDVSPSCSSFNSPCRDSVSPPKSLFSQRPQRMRSRSRSFSRHRSCSRSPYSRSRSRSPGSRSSSRSCYYYESSHYRHRTHRNSPLYVRSRSRSPYSRRPRYDSYEAYEHERLKRDEYRKEHEKRESERAKQRERQKQKAIEERRVIYVGKIRPDTTRTELRDRFEVFGEIEECTVNLRDDGDSYGFITYRYTCDAFAALENGYTLRRSNETDFELYFCGRKQFFKSNYADLDTNSDDFDPASTKSKYDSLDFDSLLKEAQRSLRR
B2: binds.

B3: His-tagged full length PGC-1α (natural protein, UniProt O70343 1-797, looked up)
chain: MAWDMCSQDSVWSDIECAALVGEDQPLCPDLPELDLSELDVNDLDTDSFLGGLKWCSDQSEIISNQYNNEPANIFEKIDEENEANLLAVLTETLDSLPVDEDGLPSFDALTDGAVTTDNEASPSSMPDGTPPPQEAEEPSLLKKLLLAPANTQLSYNECSGLSTQNHAANHTHRIRTNPAIVKTENSWSNKAKSICQQQKPQRRPCSELLKYLTTNDDPPHTKPTENRNSSRDKCASKKKSHTQPQSQHAQAKPTTLSLPLTPESPNDPKGSPFENKTIERTLSVELSGTAGLTPPTTPPHKANQDNPFKASPKLKPSCKTVVPPPTKRARYSECSGTQGSHSTKKGPEQSELYAQLSKSSGLSRGHEERKTKRPSLRLFGDHDYCQSLNSKTDILINISQELQDSRQLDFKDASCDWQGHICSSTDSGQCYLRETLEASKQVSPCSTRKQLQDQEIRAELNKHFGHPCQAVFDDKSDKTSELRDGDFSNEQFSKLPVFINSGLAMDGLFDDSEDESDKLSYPWDGTQPYSLFDVSPSCSSFNSPCRDSVSPPKSLFSQRPQRMRSRSRSFSRHRSCSRSPYSRSRSRSPGSRSSSRSCYYYESSHYRHRTHRNSPLYVRSRSRSPYSRRPRYDSYEAYEHERLKRDEYRKEHEKRESERAKQRERQKQKAIEERRVIYVGKIRPDTTRTELRDRFEVFGEIEECTVNLRDDGDSYGFITYRYTCDAFAALENGYTLRRSNETDFELYFCGRKQFFKSNYADLDTNSDDFDPASTKSKYDSLDFDSLLKEAQRSLRR
B3: binds.
